Laboratory results as given in PMC9482650, “Quantitative fragmentomics allow affinity mapping of interactomes” (Nature Communications, 2022).

Experiments:
Assay in all cases: holdup assay
Parameters in all cases: key: below the threshold = too weak to quantify, mostly under pKd 3.1 to 4
Conditions in all cases: plain residues with an end cap or a label only (N-terminal biotin on a linker: ado-ado)
MAST1, Q9Y2H9 = target: MAST1, Q9Y2H9
SCRIB_2, Q14160 = target: SCRIB_2, Q14160
DLG2_2, Q15700 = target: DLG2_2, Q15700
DLG2_2, Q15700, sequence (Q15700 189-283): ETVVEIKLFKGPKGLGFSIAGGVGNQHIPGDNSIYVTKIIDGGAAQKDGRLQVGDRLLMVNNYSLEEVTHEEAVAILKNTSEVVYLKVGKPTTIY

PARD3B_1, Q8TEW8 = target: T1, PARD3B_1, Q8TEW8
T1 sequence (Q8TEW8 196-299, limits assumed, looked up): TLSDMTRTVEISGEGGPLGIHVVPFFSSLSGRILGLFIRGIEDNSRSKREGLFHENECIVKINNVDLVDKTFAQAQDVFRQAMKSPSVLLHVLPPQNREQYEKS

SNTA1, Q13424 = target: T2, SNTA1, Q13424
T2 sequence (Q13424 82-180, limits assumed, looked up): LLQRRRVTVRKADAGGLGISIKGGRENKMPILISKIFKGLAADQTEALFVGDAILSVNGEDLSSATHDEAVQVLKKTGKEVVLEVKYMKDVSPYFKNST

PARD3_3, Q8TEW0 = target: PARD3_3, Q8TEW0
PARD3_3, Q8TEW0, sequence (Q8TEW0 582-685): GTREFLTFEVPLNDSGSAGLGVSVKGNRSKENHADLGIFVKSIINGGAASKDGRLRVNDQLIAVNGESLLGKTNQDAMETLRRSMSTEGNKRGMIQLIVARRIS

HTRA3, P83110 = target: T3, HTRA3, P83110
T3 sequence (P83110 354-453, limits assumed, looked up): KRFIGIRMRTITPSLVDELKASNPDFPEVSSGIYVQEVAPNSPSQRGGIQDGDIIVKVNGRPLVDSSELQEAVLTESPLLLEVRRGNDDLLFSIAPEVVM

ARHGEF11, O15085 = target: T4, ARHGEF11, O15085
T4 sequence (O15085 42-136, limits assumed, looked up): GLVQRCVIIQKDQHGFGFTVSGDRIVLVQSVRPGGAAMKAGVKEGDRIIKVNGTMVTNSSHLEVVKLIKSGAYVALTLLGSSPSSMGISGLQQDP

TJP1_2, Q07157 = target: TJP1_2, Q07157
TJP1_2, Q07157, sequence (Q07157 181-274): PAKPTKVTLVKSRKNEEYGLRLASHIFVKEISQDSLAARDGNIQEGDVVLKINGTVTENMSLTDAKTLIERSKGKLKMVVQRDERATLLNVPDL

MAGI2_5, Q86UL8 = target: MAGI2_5, Q86UL8
MAGI2_5, Q86UL8, sequence (Q86UL8 915-1017): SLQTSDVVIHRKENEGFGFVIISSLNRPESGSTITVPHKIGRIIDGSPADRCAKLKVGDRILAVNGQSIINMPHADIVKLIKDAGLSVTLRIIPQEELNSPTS

SNTG1, Q9NSN8 = target: T5, SNTG1, Q9NSN8
T5 sequence (Q9NSN8 52-150, limits assumed, looked up): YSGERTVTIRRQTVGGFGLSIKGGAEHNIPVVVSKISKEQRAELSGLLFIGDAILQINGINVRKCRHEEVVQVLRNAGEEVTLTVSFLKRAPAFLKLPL

Inadl_3, Q8NI35 = target: Inadl_3, Q8NI35
Inadl_3, Q8NI35, sequence (Q8NI35 359-469): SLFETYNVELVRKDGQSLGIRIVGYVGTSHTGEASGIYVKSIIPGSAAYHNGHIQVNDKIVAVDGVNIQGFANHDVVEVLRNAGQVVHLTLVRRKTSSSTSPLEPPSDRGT

Inadl_4, Q8NI35 = target: Inadl_4, Q8NI35
Inadl_4, Q8NI35, sequence (Q8NI35 547-651): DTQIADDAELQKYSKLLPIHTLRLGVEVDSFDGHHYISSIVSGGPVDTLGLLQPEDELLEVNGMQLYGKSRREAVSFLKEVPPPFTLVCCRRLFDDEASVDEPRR

SIPA1L2, Q9P2F8 = target: T6, SIPA1L2, Q9P2F8
T6 sequence (Q9P2F8 945-1036, limits assumed, looked up): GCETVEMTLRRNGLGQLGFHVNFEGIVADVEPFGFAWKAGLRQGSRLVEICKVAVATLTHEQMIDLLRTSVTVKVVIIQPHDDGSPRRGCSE

NHERF4_1, Q86UT5-2 = target: NHERF4_1, Q86UT5-2
NHERF4_1, Q86UT5-2, sequence (Q86UT5 other isoform, or with tags, fused parts or gaps): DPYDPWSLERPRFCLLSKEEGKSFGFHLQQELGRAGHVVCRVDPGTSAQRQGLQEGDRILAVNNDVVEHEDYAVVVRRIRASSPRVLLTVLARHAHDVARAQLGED

IL16_1, Q14005 = target: IL16_1, Q14005
IL16_1, Q14005, sequence (Q14005 210-306): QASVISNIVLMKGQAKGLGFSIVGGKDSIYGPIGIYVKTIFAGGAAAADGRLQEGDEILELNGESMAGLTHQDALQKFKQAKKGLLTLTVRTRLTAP

SNTG2, Q9NY99 = target: T7, SNTG2, Q9NY99
T7 sequence (Q9NY99 68-166, limits assumed, looked up): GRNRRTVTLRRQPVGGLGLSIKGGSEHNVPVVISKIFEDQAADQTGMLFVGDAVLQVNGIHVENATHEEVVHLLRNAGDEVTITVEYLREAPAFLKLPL

NHERF2_2, Q15599 = target: NHERF2_2, Q15599
NHERF2_2, Q15599, sequence (Q15599 142-238): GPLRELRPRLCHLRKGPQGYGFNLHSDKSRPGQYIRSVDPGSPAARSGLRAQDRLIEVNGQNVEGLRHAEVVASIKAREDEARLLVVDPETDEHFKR

Inadl_9, Q8NI35 = target: Inadl_9, Q8NI35
Inadl_9, Q8NI35, sequence (Q8NI35 1530-1615): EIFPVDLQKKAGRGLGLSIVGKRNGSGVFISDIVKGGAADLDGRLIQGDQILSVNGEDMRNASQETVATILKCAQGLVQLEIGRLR

PCLO, Q9Y6V0 = target: T8, PCLO, Q9Y6V0
T8 sequence (Q9Y6V0 4491-4600, limits assumed, looked up): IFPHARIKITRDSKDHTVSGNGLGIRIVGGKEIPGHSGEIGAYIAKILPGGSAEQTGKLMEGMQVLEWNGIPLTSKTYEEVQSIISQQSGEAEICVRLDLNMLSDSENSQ

MPP7, Q5T2T1 = target: T9, MPP7, Q5T2T1
T9 sequence (Q5T2T1 134-230, limits assumed, looked up): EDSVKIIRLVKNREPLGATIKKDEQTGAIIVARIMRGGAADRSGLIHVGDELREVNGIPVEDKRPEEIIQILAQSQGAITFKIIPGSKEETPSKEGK

SYNJ2BP, P57105 = target: T10, SYNJ2BP, P57105
T10 sequence (P57105 8-110, limits assumed, looked up): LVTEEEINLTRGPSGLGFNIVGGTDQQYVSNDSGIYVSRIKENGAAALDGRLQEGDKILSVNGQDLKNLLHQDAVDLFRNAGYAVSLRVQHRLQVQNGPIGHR

NOS1, P29475 = target: NOS1, P29475
NOS1, P29475, sequence (P29475 9-101): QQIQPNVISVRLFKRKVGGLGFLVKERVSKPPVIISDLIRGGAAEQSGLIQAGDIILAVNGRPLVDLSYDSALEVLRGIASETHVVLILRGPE

ARHGEF12, Q9NZN5-2 = target: ARHGEF12, Q9NZN5-2
ARHGEF12, Q9NZN5-2, sequence (Q9NZN5 other isoform, or with tags, fused parts or gaps): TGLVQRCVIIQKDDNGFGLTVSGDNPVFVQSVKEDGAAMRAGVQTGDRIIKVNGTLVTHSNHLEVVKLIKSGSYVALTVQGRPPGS

LNX2_3, Q8N448 = target: T11, LNX2_3, Q8N448
T11 sequence (Q8N448 463-564, limits assumed, looked up): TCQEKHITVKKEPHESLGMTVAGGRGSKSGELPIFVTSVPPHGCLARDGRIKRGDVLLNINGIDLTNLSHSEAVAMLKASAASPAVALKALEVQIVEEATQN

HTRA4, P83105 = target: T12, HTRA4, P83105
T12 sequence (P83105 378-476, limits assumed, looked up): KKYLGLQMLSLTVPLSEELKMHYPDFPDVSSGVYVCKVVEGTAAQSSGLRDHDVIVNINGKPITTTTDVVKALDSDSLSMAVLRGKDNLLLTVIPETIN

SCRIB_2, Q14160, sequence (Q14160 857-960): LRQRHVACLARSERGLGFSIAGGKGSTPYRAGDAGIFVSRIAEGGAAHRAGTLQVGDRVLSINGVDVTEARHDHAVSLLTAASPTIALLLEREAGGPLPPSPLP
MAST1, Q9Y2H9, sequence (Q9Y2H9 962-1065): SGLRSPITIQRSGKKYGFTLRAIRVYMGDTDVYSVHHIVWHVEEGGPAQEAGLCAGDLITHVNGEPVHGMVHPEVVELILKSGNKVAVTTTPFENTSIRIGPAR

HSGYRLNDYV [CLDN14, O95500]
pKd (MAST1, Q9Y2H9): below the threshold
pKd (SCRIB_2, Q14160): below the threshold
pKd (DLG2_2, Q15700): below the threshold
pKd (PARD3B_1, Q8TEW8): below the threshold
pKd (SNTA1, Q13424): below the threshold
pKd (PARD3_3, Q8TEW0): 3.83
pKd (HTRA3, P83110): 4.55
pKd (ARHGEF11, O15085): 3.71
pKd (TJP1_2, Q07157): below the threshold
pKd (MAGI2_5, Q86UL8): below the threshold
pKd (SNTG1, Q9NSN8): below the threshold
pKd (Inadl_3, Q8NI35): below the threshold
pKd (Inadl_4, Q8NI35): below the threshold
pKd (SIPA1L2, Q9P2F8): below the threshold
pKd (NHERF4_1, Q86UT5-2): 3.57
pKd (IL16_1, Q14005): below the threshold
pKd (SNTG2, Q9NY99): below the threshold
pKd (NHERF2_2, Q15599): below the threshold
pKd (Inadl_9, Q8NI35): 3.58
pKd (PCLO, Q9Y6V0): below the threshold
pKd (MPP7, Q5T2T1): below the threshold
pKd (SYNJ2BP, P57105): 3.63
pKd (NOS1, P29475): 4.21
pKd (ARHGEF12, Q9NZN5-2): below the threshold
pKd (LNX2_3, Q8N448): below the threshold
pKd (HTRA4, P83105): 3.95

KKMPSIESDV [GRIN2A, Q12879]
pKd (MAST1, Q9Y2H9): below the threshold
pKd (SCRIB_2, Q14160): 4.43
pKd (DLG2_2, Q15700): 5.04
pKd (PARD3B_1, Q8TEW8): below the threshold
pKd (SNTA1, Q13424): 4.59
pKd (PARD3_3, Q8TEW0): below the threshold
pKd (HTRA3, P83110): below the threshold
pKd (ARHGEF11, O15085): below the threshold
pKd (TJP1_2, Q07157): below the threshold
pKd (MAGI2_5, Q86UL8): below the threshold
pKd (SNTG1, Q9NSN8): 4.89
pKd (Inadl_3, Q8NI35): below the threshold
pKd (Inadl_4, Q8NI35): below the threshold
pKd (SIPA1L2, Q9P2F8): below the threshold
pKd (NHERF4_1, Q86UT5-2): below the threshold
pKd (IL16_1, Q14005): 4.05
pKd (SNTG2, Q9NY99): 4.41
pKd (NHERF2_2, Q15599): below the threshold
pKd (Inadl_9, Q8NI35): below the threshold
pKd (PCLO, Q9Y6V0): below the threshold
pKd (MPP7, Q5T2T1): below the threshold
pKd (SYNJ2BP, P57105): 4.85
pKd (NOS1, P29475): below the threshold
pKd (ARHGEF12, Q9NZN5-2): 3.69
pKd (LNX2_3, Q8N448): below the threshold
pKd (HTRA4, P83105): below the threshold

TSQESEDTYL [TBC1D10A, Q9BXI6]
pKd (MAST1, Q9Y2H9): 4.71
pKd (SCRIB_2, Q14160): below the threshold
pKd (DLG2_2, Q15700): below the threshold
pKd (PARD3B_1, Q8TEW8): 4.58
pKd (SNTA1, Q13424): 3.91
pKd (PARD3_3, Q8TEW0): 4.63
pKd (HTRA3, P83110): below the threshold
pKd (ARHGEF11, O15085): below the threshold
pKd (TJP1_2, Q07157): below the threshold
pKd (MAGI2_5, Q86UL8): below the threshold
pKd (SNTG1, Q9NSN8): below the threshold
pKd (Inadl_3, Q8NI35): below the threshold
pKd (Inadl_4, Q8NI35): below the threshold
pKd (SIPA1L2, Q9P2F8): below the threshold
pKd (NHERF4_1, Q86UT5-2): 3.97
pKd (IL16_1, Q14005): below the threshold
pKd (SNTG2, Q9NY99): below the threshold
pKd (NHERF2_2, Q15599): 5.52
pKd (Inadl_9, Q8NI35): 3.58
pKd (PCLO, Q9Y6V0): below the threshold
pKd (MPP7, Q5T2T1): below the threshold
pKd (SYNJ2BP, P57105): 3.93
pKd (NOS1, P29475): below the threshold
pKd (ARHGEF12, Q9NZN5-2): 4.02
pKd (LNX2_3, Q8N448): below the threshold
pKd (HTRA4, P83105): 3.75

DDENIRTSDV [PLEKHA2, Q9HB19]
pKd (MAST1, Q9Y2H9): 4.31
pKd (SCRIB_2, Q14160): 3.75
pKd (DLG2_2, Q15700): 4.04
pKd (PARD3B_1, Q8TEW8): below the threshold
pKd (SNTA1, Q13424): 5.11
pKd (PARD3_3, Q8TEW0): below the threshold
pKd (HTRA3, P83110): below the threshold
pKd (ARHGEF11, O15085): 4.2
pKd (TJP1_2, Q07157): below the threshold
pKd (MAGI2_5, Q86UL8): below the threshold
pKd (SNTG1, Q9NSN8): 4.88
pKd (Inadl_3, Q8NI35): below the threshold
pKd (Inadl_4, Q8NI35): below the threshold
pKd (SIPA1L2, Q9P2F8): below the threshold
pKd (NHERF4_1, Q86UT5-2): below the threshold
pKd (IL16_1, Q14005): 3.83
pKd (SNTG2, Q9NY99): 4.08
pKd (NHERF2_2, Q15599): below the threshold
pKd (Inadl_9, Q8NI35): below the threshold
pKd (PCLO, Q9Y6V0): below the threshold
pKd (MPP7, Q5T2T1): below the threshold
pKd (SYNJ2BP, P57105): 4.38
pKd (NOS1, P29475): below the threshold
pKd (ARHGEF12, Q9NZN5-2): 4.25
pKd (LNX2_3, Q8N448): below the threshold
pKd (HTRA4, P83105): below the threshold
